Experimental data from publication doi:10.1101/2022.03.24.485560.

molecular target: TRIM7 PRY-SPRY domain (338-511 aa) (human) (UniProt Q9C029); assay: ITC

Substance	Kd
C-terminal peptide fragment of RACO-1	10 µM
CVB3 2C-derived peptide (319-329 aa)	3 µM
CVB3 2C (117-329 aa) (domain or fragment)	6 µM
C-terminal peptide fragment of glycogenin-1 (GN1)	8 µM
